Test results as given in the supplement of paper PMC9170038.

Tested on: MS2 coat protein
Experiment: apparent KD of MS2 coat protein; higher = weaker reporter binding
Conditions: Eterna round: R107; input ligand: none
Procedure: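 RNA-MaP round R107: designed RNA switches with theophylline, tryptophan, arginine or FMN aptamers are transcribed on-chip within common flanks. They are titrated with SNAP-549-labelled MS2 coat protein in RNA-MaP buffer (100 mM Tris pH 7.5, 80 mM KCl, 4 mM MgCl2), without ligand or with the indicated ligand. Median apparent KD per design.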

| Sequence | apparent KD of MS2 coat protein |
| --- | --- |
| UGGCAGUACAUGGGUUACUGCCAAGGUGAUACCAGCAUCGAAAGAUGCCCUUGGCAGCACCAACAUGAGGAUCACCCAUGUAAUA [(MT)''-(M)'-(T')-(Theo)-(Ms2)_Design1/22_8] | 234 nM |
| AAAUCAGUCUGAAGGAGCGUCACAUGAGGAUCACCCAUGUACAUGAGGAUCACCCAUGUGUGACAGGUAGGUCGCAGAGGAUACC [Exclusion Arginine B GF 4] | 169 nM |
| AGCUCGCGUCCUCAAGCGUCAAAGACGCGUCGAGGACCGGUACGGCCGCCACUCGACCUGAGGAUCACCCAGGUUUAAGCGAGCA [TrypAX 6 #SwitchBubble #AlternativeMS2 #MS2Late #CuTurnoff] | 17.8 nM |
| UGACAUUGCUCAGAUACCAGACAUGAGCAUCAGCCAUGUACCAAGAGUACAUGUUAAAAUGUCCCUUGGCAGCUGAGCAAUGUCU [Mod of Eli's TheoBX5 #AlternateMS2 v2] | 67.6 nM |
| GAAUUUAUAUGAAGGAGCGUCGAAAAUGGGUAAACAUGAGGAUCACCCAUGUAAAGGGAACGACAGGUAGGUCGCAUAUGGAUUC [AstromonsSSArgB#26] | 175 nM |
| AGUGACUACAUCUGGAAUUAAGGUAGGGAAGGAGCGCGGUAAGACGCAGGUAGGUCGCCCUACAUGAGGAUCACCCAUGUGAUGU [XARG-A 28] | 354 nM |
| CCGGCAUGUCGAAGGAGCGUCACAUGAGGAUCACCCAUGUACAUGAGGAUCACCCAUGUGUGACAGGUAGGUCGCGGCGGCCAGG [Exclusion Arginine B GF7] | 140 nM |
| GCGCUCGACAGAAGGAGCGGCGACGUCGGUGUCAGGAGGCACAUGAGGAUCACCCAUGUCAGCCAGGUAGGUCGCUGUCGAUCGC [Arquce] | 37.3 nM |
| ACAUGAGGAUCACCCAUGUACAUAAGGGAAGGAGCGCGGUGGAACGCAGGUAGGUCGCCCAUAAUAACAAUAAAUAAAUUCAUGU [#04 Same State - Arginine A] | 14.7 nM |
| GGCACCAGGAGAAGGAGCGUGAAGACAUGAGGAUCACCCAUGUAGAGGCCCGUACUGGGUUCGCAGGUAGGUCGCUCCUGGUGCC [#1 Same State - Arginine B Attempt #13 (HarryS)] | 22.9 nM |
| CCGGUUAGGACGGCCGCCACUGUGGCUACGGUACAUGAGGAUCACCCAUGUUUGUGGUUGAUCUACAGGACCGGGUCCUGACACG [Eronri] | 247 nM |
| AUGACUUACGGGCGCCAUUUGUAAUAGGAAGGAGCGGCGAGAUAGCCAGGUAGGUCGCCUAUACAUGAGGAUCACCCAUGUCACC [Vegeorbe] | 120 nM |
| ACAUGAGGAUCACCCAUGUGGCGACUUGAUACCAGACCCGCACUAGUCCCUUGGCAGCAACUACGUGAGGGACACCCAUGUGAAG | 25.8 nM |
| GUUAUGGACCUGGAUACCAGCUGGUACGAGGGCGGUCUACAUGAGGAUCACCCAUGUGUCAGCCCUUGGCAGCCAGCAACCCGCU [Raquleer] | 9.39 nM |
| ACAUGAGGAUCACCCAUGUAAGGUCUUGAUACCAGACGCGAAGUAGUCCCUUGGCAGCAAAUACGUGAGGGUCGCACAUGUGUAA [mcnmullin] | 33.1 nM |
| AGGUGGGUCUGAAGGAGCGCGAUAACAUGAGGAUCACCCAUGUUAAAUGGUACAUGAUACUCGCAGGUAGGUCGCAGUAAAACCA [Same State Arginine B GF 12] | 84.4 nM |

Same assay, conditions: Eterna round: R107; input ligand: theophylline 20 uM

| Sequence | apparent KD of MS2 coat protein |
| --- | --- |
| UGGCAGUACAUGGGUUACUGCCAAGGUGAUACCAGCAUCGAAAGAUGCCCUUGGCAGCACCAACAUGAGGAUCACCCAUGUAAUA [(MT)''-(M)'-(T')-(Theo)-(Ms2)_Design1/22_8] | 210 nM |
| ACCUUACAUGAGGAUCACCCAUGUCGUGAUACCAGAAACCACGUAUUCCCUUGGCAGCACACCCGUGAUGAGAUUGUCGGUUUUG [theeternabot_sameState_MS2_Theo_A_43] | 86.3 nM |
| UUACAUGAGGAUCACCCAUGUCAUAAUGAUACCAGAUAGUUGAUGAUCCCUUGGCAGCAUAGUACCUAGACAUGUGAGUCAUAGG [Ab] | 130 nM |
| AAAUCAGUCUGAAGGAGCGUCACAUGAGGAUCACCCAUGUACAUGAGGAUCACCCAUGUGUGACAGGUAGGUCGCAGAGGAUACC [Exclusion Arginine B GF 4] | 168 nM |
| AGCUCGCGUCCUCAAGCGUCAAAGACGCGUCGAGGACCGGUACGGCCGCCACUCGACCUGAGGAUCACCCAGGUUUAAGCGAGCA [TrypAX 6 #SwitchBubble #AlternativeMS2 #MS2Late #CuTurnoff] | 20 nM |
| UGACAUUGCUCAGAUACCAGACAUGAGCAUCAGCCAUGUACCAAGAGUACAUGUUAAAAUGUCCCUUGGCAGCUGAGCAAUGUCU [Mod of Eli's TheoBX5 #AlternateMS2 v2] | 203 nM |
| CGAUACGUAACUGAUACCAGUGUACUGACAUGAGGAUCACCCAUGUUGGGUUUUGUUGUACACCCUUGGCAGCAGAAUCGUAUCG [AstrosExyTheB#18] | 77.5 nM |
| GAAUUUAUAUGAAGGAGCGUCGAAAAUGGGUAAACAUGAGGAUCACCCAUGUAAAGGGAACGACAGGUAGGUCGCAUAUGGAUUC [AstromonsSSArgB#26] | 196 nM |
| AGUGACUACAUCUGGAAUUAAGGUAGGGAAGGAGCGCGGUAAGACGCAGGUAGGUCGCCCUACAUGAGGAUCACCCAUGUGAUGU [XARG-A 28] | 264 nM |
| CCGGCAUGUCGAAGGAGCGUCACAUGAGGAUCACCCAUGUACAUGAGGAUCACCCAUGUGUGACAGGUAGGUCGCGGCGGCCAGG [Exclusion Arginine B GF7] | 178 nM |
| GCGCUCGACAGAAGGAGCGGCGACGUCGGUGUCAGGAGGCACAUGAGGAUCACCCAUGUCAGCCAGGUAGGUCGCUGUCGAUCGC [Arquce] | 41.9 nM |
| UAAUUCACUAUUCACGGUCCGAUGUUCGAUACCAGAUCAUUUCGAAUCCCUUGGCAGCGAUUAACAUGAGGAUCACCCAUGUAAC [theeternabot_exclusion_MS2_Theo_A_35] | 40.6 nM |
| ACAUGAGGAUCACCCAUGUACAUAAGGGAAGGAGCGCGGUGGAACGCAGGUAGGUCGCCCAUAAUAACAAUAAAUAAAUUCAUGU [#04 Same State - Arginine A] | 23.6 nM |
| GGCACCAGGAGAAGGAGCGUGAAGACAUGAGGAUCACCCAUGUAGAGGCCCGUACUGGGUUCGCAGGUAGGUCGCUCCUGGUGCC [#1 Same State - Arginine B Attempt #13 (HarryS)] | 39.2 nM |
